From PMC7192624, “A Snu114–GTP–Prp8 module forms a relay station for efficient splicing in yeast” (Nucleic Acids Research, 2020)
Where a chain is given by its changes, count along the chain named.

What was measured:
Test in all cases: SEC; two proteins co-produced in insect cells, both Strep-tagged; StrepTactin capture, then SEC on Superdex S200 in 10 mM TRIS-HCl pH 8.0, 300 mM NaCl, 2 mM DTT; co-purification of wt and variant complexes
Conditions in all cases: both partners purified
[1] = target: T1, Snu114^72-1008 S190A (yeast, UniProt P36048 72-1008, S190A)
T1 construct: Insoluble when produced alone; also called Snu114^S190A; source: insect cells, co-produced with Prp8^SBR; complex purified; not shown: Strep tag (from the vector pIDS-C-Strep), C-terminal, kept
T1 sequence (looked up): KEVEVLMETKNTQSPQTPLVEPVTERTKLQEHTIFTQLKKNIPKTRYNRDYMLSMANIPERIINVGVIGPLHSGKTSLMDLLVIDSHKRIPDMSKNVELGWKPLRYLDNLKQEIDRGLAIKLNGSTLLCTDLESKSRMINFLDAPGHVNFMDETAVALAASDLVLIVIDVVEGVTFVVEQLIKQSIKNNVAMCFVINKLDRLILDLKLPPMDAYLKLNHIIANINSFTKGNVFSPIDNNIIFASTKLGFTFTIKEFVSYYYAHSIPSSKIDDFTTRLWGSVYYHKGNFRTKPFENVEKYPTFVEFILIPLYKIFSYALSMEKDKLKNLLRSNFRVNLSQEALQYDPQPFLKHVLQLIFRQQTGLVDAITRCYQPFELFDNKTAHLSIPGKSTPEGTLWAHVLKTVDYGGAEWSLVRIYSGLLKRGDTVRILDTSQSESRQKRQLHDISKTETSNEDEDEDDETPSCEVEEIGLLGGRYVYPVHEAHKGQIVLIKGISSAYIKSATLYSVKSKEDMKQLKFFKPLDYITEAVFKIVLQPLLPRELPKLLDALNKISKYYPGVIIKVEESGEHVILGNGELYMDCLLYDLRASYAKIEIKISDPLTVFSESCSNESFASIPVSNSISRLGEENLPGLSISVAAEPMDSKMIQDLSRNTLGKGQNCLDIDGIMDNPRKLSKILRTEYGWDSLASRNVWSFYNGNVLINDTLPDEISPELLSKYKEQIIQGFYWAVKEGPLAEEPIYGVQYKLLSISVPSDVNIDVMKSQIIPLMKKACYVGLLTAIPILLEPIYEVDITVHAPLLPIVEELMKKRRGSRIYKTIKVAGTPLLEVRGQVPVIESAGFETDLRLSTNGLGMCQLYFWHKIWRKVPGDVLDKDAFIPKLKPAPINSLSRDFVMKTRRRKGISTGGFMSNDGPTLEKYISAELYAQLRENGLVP

[2] = target: T2, Snu114^72-1008 K146A (yeast, UniProt P36048 72-1008, K146A)
T2 construct: Insoluble when produced alone; also called Snu114^K146A; source: insect cells, co-produced with Prp8^SBR; complex purified; not shown: Strep tag (from the vector pIDS-C-Strep), C-terminal, kept
T2 sequence (looked up): T1 sequence (looked up) with K75A, A119S

[3] = target: T3, Snu114^72-1008 (yeast Snu114 lacking the acidic N-terminal region) (yeast, UniProt P36048 72-1008)
T3 construct: synthetic gene; Co-purifies with endogenous GTP; source: insect cells (MultiBac baculovirus); co-produced with Prp8 constructs or alone; purified (StrepTactin, SEC); not shown: Strep tag (from the vector pIDS-C-Strep), C-terminal, kept
T3 sequence (looked up): T1 sequence (looked up) with A119S

Measured: binding result

B1: Prp8^SBR (Prp8 Snu114-binding region, Prp8 residues 315-555), recombinant (domain or fragment, yeast, UniProt P33334 315-555, looked up)
chain: STPLRDEVTDKNYYYLFDKKSFFNGKALNNAIPGGPKFEPLYPREEEEDYNEFNSIDRVIFRVPIRSEYKVAFPHLYNSRPRSVRIPWYNNPVSCIIQNDEEYDTPALFFDPSLNPIPHFIDNNSSLNVSNTKENGDFTLPEDFAPLLAEEEELILPNTKDAMSLYHSPFPFNRTKGKMVRAQDVALAKKWFLQHPDEEYPVKVKVSYQKLLKNYVLNELHPTLPTNHNKTKLLKSLKNTK
notes: Could not be produced alone; In the crystal residues 367-533 were modelled (416-419 and 435-449 without density); also called wt Prp8^SBR; Prp8^SBP; source: complex purified (StrepTactin, SEC); not shown: Strep tag (from the vector pFL-N-Strep), N-terminal, kept
binds: all assays above
